{"source": "paper PMC6996891", "target": "attachment invasion locus (Ail) protein, wild type (Yersinia pestis)", "assay": "native gel or EMSA", "data": [{"substance": "attachment invasion locus (Ail) protein, wild type (natural protein)", "values": [{"measurement": "percent oligomers", "result": 20, "unit": "%"}]}]}
